Assay results published in article PMC5974397, “Oligomeric states of microbial rhodopsins determined by high-speed atomic force microscopy and circular dichroic spectroscopy” (Scientific Reports, 2018).
Where “and” joins values, the source holds several entries; their conditions need not be identical. Equal values may be shown once.

Tests used:
[1] = target: Anabaena sensory rhodopsin (Anabaena sp. PCC7120); test: circular dichroism spectroscopy (visible, exciton coupling of retinals); protein reconstituted in POPE/POPG (3:1) liposomes, protein:lipid 1:50; 100 mM NaCl, 20 mM Tris-HCl (pH 8.0), 25 °C
[2] = target: Anabaena sensory rhodopsin (Anabaena sp. PCC7120); test: high-speed atomic force microscopy (HS-AFM); protein reconstituted in asolectin lipid membrane of limited size with MSP1E3D1, on APTES-treated mica; 20 mM Tris-HCl (pH 8.0), 50 mM NaCl, room temperature; oligomer seen subunit by subunit
[3] = target: Fulvimarina rhodopsin (Fulvimarina pelagi); test: as above
[4] = target: KR2_(278) (Krokinobacter eikastus); test: high-speed atomic force microscopy (HS-AFM); protein reconstituted in asolectin lipid membrane with MSP1E3D1, on APTES-treated mica; acidic solution: 20 mM citrate-NaOH (pH 4.3), 50 mM NaCl, room temperature
[5] = target: KR2_(278) (Krokinobacter eikastus); test: high-speed atomic force microscopy (HS-AFM); protein reconstituted in asolectin lipid membrane of limited size with MSP1E3D1, on APTES-treated mica; 20 mM Tris-HCl (pH 8.0), 50 mM NaCl, room temperature; oligomer seen subunit by subunit
[6] = target: Kineococcus radiotolerans actinorhodopsin (Kineococcus radiotolerans); test: as above
[7] = target: Krokinobacter eikastus rhodopsin 2 (Krokinobacter eikastus); test: circular dichroism spectroscopy (visible, exciton coupling of retinals); protein solubilized in DDM
[8] = target: Krokinobacter eikastus rhodopsin 2 (Krokinobacter eikastus); test: high-speed atomic force microscopy (HS-AFM); protein reconstituted in asolectin lipid membrane of limited size with MSP1E3D1, on APTES-treated mica; 20 mM Tris-HCl (pH 8.0), 50 mM NaCl, room temperature; oligomer seen subunit by subunit
[9] = target: Parvularcula oceani xenorhodopsin (Parvularcula oceani); test: circular dichroism spectroscopy (visible, exciton coupling of retinals); protein reconstituted in POPE/POPG (3:1) liposomes, protein:lipid 1:50; 100 mM NaCl, 20 mM Tris-HCl (pH 8.0), 25 °C
[10] = target: Parvularcula oceani xenorhodopsin (Parvularcula oceani); test: high-speed atomic force microscopy (HS-AFM); protein reconstituted in asolectin lipid membrane of limited size with MSP1E3D1, on APTES-treated mica; 20 mM Tris-HCl (pH 8.0), 50 mM NaCl, room temperature; oligomer seen subunit by subunit
[11] = target: Quadrisphaera actinorhodopsin (Quadrisphaera sp. R2A-380-A); test: as above
[12] = target: the molecule itself; test: as above
[13] = target: T1, Natronomonas pharaonis sensory rhodopsin II (Natronomonas pharaonis), P42196; test: as above; conditions: remark: other sources report otherwise
T1 chain: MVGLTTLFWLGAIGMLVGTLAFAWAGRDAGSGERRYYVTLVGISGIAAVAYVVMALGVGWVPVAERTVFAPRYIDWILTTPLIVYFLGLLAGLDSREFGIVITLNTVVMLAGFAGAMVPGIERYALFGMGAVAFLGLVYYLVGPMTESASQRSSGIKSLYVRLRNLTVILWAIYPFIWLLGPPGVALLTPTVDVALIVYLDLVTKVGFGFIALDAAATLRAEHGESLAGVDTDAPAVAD

Anabaena sensory rhodopsin (natural protein)
stoichiometry N [1]: 3
stoichiometry N [2]: 3

Fulvimarina rhodopsin (natural protein)
stoichiometry N [3]: 5

KR2_(278) (domain or fragment)
stoichiometry N [4]: 5
stoichiometry N [5]: 5

Kineococcus radiotolerans actinorhodopsin (natural protein)
stoichiometry N [6]: 5

Krokinobacter eikastus rhodopsin 2 (natural protein)
stoichiometry N [7]: 5
stoichiometry N [8]: 5

Parvularcula oceani xenorhodopsin (natural protein)
stoichiometry N [9]: 3
stoichiometry N [10]: 3

Quadrisphaera actinorhodopsin (natural protein)
stoichiometry N [11]: 5

B1: Natronomonas pharaonis halorhodopsin (natural protein, UniProt P15647 1-291, looked up)
chain: MTETLPPVTESAVALQAEVTQRELFEFVLNDPLLASSLYINIALAGLSILLFVFMTRGLDDPRAKLIAVSTILVPVVSIASYTGLASGLTISVLEMPAGHFAEGSSVMLGGEEVDGVVTMWGRYLTWALSTPMILLALGLLAGSNATKLFTAITFDIAMCVTGLAAALTTSSHLMRWFWYAISCACFLVVLYILLVEWAQDAKAAGTADMFNTLKLLTVVMWLGYPIVWALGVEGIAVLPVGVTSWGYSFLDIVAKYIFAFLLLNYLTSNESVVSGSILDVPSASGTPADD
modifications: retinal chromophore
notes: Halorhodopsin (chloride pump) from Natronomonas pharaonis; also called NpHR
stoichiometry N [12]: 3

B2: Gloeobacter rhodopsin (natural protein, Gloeobacter violaceus PCC 7421, UniProt Q7NP59 1-298, looked up)
chain: MLMTVFSSAPELALLGSTFAQVDPSNLSVSDSLTYGQFNLVYNAFSFAIAAMFASALFFFSAQALVGQRYRLALLVSAIVVSIAGYHYFRIFNSWDAAYVLENGVYSLTSEKFNDAYRYVDWLLTVPLLLVETVAVLTLPAKEARPLLIKLTVASVLMIATGYPGEISDDITTRIIWGTVSTIPFAYILYVLWVELSRSLVRQPAAVQTLVRNMRWLLLLSWGVYPIAYLLPMLGVSGTSAAVGVQVGYTIADVLAKPVFGLLVFAIALVKTKADQESSEPHAAIGAAANKSGGSLIS
modifications: retinal chromophore
notes: Gloeobacter rhodopsin (GR), proton pump, from Gloeobacter violaceus PCC 7421; also called GR; rhodopsin from Gloeobacter violaceus PCC 7421; not shown: His6, C-terminal, kept
stoichiometry N [12]: 5

B3: Natronomonas pharaonis sensory rhodopsin II, P42196 1-239 (natural protein)
chain: T1 chain
modifications: here or on the partner: retinal chromophore; retinal chromophore
stoichiometry N [13]: 3

B4: green-absorbing proteorhodopsin (natural protein, uncultured marine gamma proteobacterium, UniProt Q9F7P4 18-249, looked up)
chain: AGGGDLDASDYTGVSFWLVTAALLASTVFFFVERDRVSAKWKTSLTVSGLVTGIAFWHYMYMRGVWIETGDSPTVFRYIDWLLTVPLLICEFYLILAAATNVAGSLFKKLLVGSLVMLVFGYMGEAGIMAAWPAFIIGCLAWVYMIYELWAGEGKSACNTASPAVQSAYNTMMYIIIFGWAIYPVGYFTGYLMGDGGSALNLNLIYNLADFVNKILFGLIIWNVAVKESSNA
modifications: retinal chromophore
notes: Green-absorbing proteorhodopsin (GPR), proton pump, from uncultured marine gamma proteobacterium; Pentamers (76%) and hexamers (24%) coexist in the lipid; copies gives the dominant form; also called green proteorhodopsin
stoichiometry N [12]: 5 and 6
